Data from patent publication US20230391828A1, “REGULATORS OF CELL DIVISION” (TECHNISCHE UNIVERSITÄT DRESDEN, priority 2020, published 2023).
“Also recorded” adds a separate entry of the source. Bridge positions count the residues as written; N and C are the ends. Square brackets hold non-standard residues; d marks the D form. 2Nal = N[C@@H](Cc1ccc2ccccc2c1)C(=O)O; R8 = C=CCCCCCC[C@@](C)(N)C(=O)O; S5 = C=CCCC[C@](C)(N)C(=O)O; Pra = C#CC[C@H](N)C(=O)O

Columns and labels:
[1] = molecular target: T1, APC/C (Homo sapiens, UniProt Q9NYG5); assay: In vitro APC/C ubiquitination assay driven by the E2 enzyme UBE2C, fluorophore-labelled securin substrate; type: biochemical; conditions: 100 μM, UBE2C, reaction time 45 min
T1 construct: made in house; host or cells: SF9 insect cells (baculovirus)
Method: Proteins were separated by SDS-PAGE electrophoresis using precast Bolt 4-12% Bis-Tris Plus protein gels (Thermo Fisher Scientific) and Criterion XT Bis-Tris Midi Protein Gels (Bio-Rad). In different experiments, various conditions were used: in vitro APC/C ubiquitination assays—165 V, 40 min, SDS-MES running buffer (50 mM MES, 50 mM Tris base, 0.1% SDS, 1 mM EDTA, pH 7.3; Thermo Fisher Scientific); in vitro APC/C ubiquitination assays determining KM—165V, 1 h, SDS-MOPS running buffer (50 mM MOPS, 50 mM Tris base, 0.1% SDS, 1 mM EDTA, pH 7.7; Thermo Fisher Scientific); pull-down binding assay—165 V, 35 min, SDS-MES running buffer.
APC/C-dependent ubiquitination reactions were performed at 30° C. in 30 mM HEPES pH 7.4, 175 mM NaCl, 8 mM MgCl2, 0.05% Tween-20, 1 mM DTT and 5% glycerol and contained 20 nM recombinant APC/C (note, for testing the first generation of inhibitors, APC/C and Cdc20 immunoprecipitated from mitotic HeLa K cells was used), 340 nM Cdc20, 46 nM GST-UBA1, 340 nM UBE2C (alternatively 400 nM UBE2D1, 280 nM UBE2S), 21 μM His6-ubiquitin or if it is indicated 21 μM methylated-ubiquitin (BostonBiochem), 2.6 mM ATP, 10 mM phosphocreatine and 11 μM creatine kinase. As substrates, 35 nM fluorophore-labeled ubiquitin-cyclin B and 50 nM fluorophore-labeled securin were standardly used (fluorophore IRDye 800CW (LI-COR) was used for labelling). In case of KM and kcat determination, 50, 100, 250, 500, 750, 1000, 1250, 2500 and 5000 nM fluorophore-labelled securin was used. The reaction was done in the volume of 15 μl, it was quenched after the indicated time with LDS sample buffer (Thermo Fisher Scientific) supplemented with 100 mM DTT and subjected to SDS-PAGE. Detection of fluorescently labelled substrates was done by quantitative near-infrared scanning system Odyssey.

[2] = tested on: hTERT RPE-1 cells; assay: Live cell imaging of hTERT RPE-1 cells; type: cell-based; conditions: hTERT RPE-1, 100 μM, imaged 12-24 h
Method: Automated time-lapse microscopy was performed using ImageXpress Micro XLS wide-field screening microscope (Molecular Devices) equipped with a 10×, 0.5 NA., 20×, 0.7 NA, and 40×, 0.95 NA Plan Apo air objectives (Nikon), a laser-based autofocus and a full environmental control (5% CO2, 37° C.). Cells were grown in 96-well plastic bottom plates (clear, Greiner Bio-One) and for live cell imaging media was changed to DMEM without phenol red and riboflavin (Thermo Fisher Scientific), supplemented with 10% (v/v) FBS, 1% (v/v) Glutamax, 1% (v/v) penicillin-streptomycin, and 0.5 μg/ml amphotericin B.
hTERT RPE-1 cells were seeded into 96-well plates (5000 cells) one day prior the treatment with compounds of the invention. Cells were treated with 100 μM of compound G2-6 and the negative control molecule G2-N2 and cell division was monitored by live cell imaging using ImageXpress Micro XLS wide-field screening microscope, images were acquired every 3 min for time courses of 12-24 h. The length of mitosis was determined manually.

[3] = molecular target: T2, APC/C (APC11) (Homo sapiens, UniProt Q9NYG5); assay: Pull-down binding assay in HeLa K cell extract, APC/C; conditions: Pra peptide clicked to azide agarose or magnetic beads, Western blot
T2 construct: endogenous in cells; host or cells: HeLa K cell extract
Method: (§1) For the protein transfer, the 0.45 μm Immobilon-FL PVDF membrane (Merck Millipore) was used. The membrane was activated in ethanol and then transferred to the Blotting buffer (50 mM SDS-MOPS, 50 mM Tris base, 0.1% SDS, 1 mM EDTA, 20% EtOH). The proteins were transferred using a wet transfer for 1.5 h at 400 mA. Subsequently, the membrane was incubated with the blocking solution, 10% milk in PBS-T (0.02% Tween-20 in PBS), for 1 h at room temperature. To detect proteins of the interest, the membrane was incubated with primary antibodies overnight at 4° C. Followed by washing the membrane 3 times 10 min with PBS-T and incubation with IRDye fluorescently labelled secondary antibodies for 1 h. Prior detection, the membrane was twice washed with PBS-T for 10 min and once with PBS for 10 min. The detection was done using the quantitative near-infrared scanning system Odyssey (LI-COR Biosciences).
HeLa K cell pellet was re-suspended in the extraction buffer (30 mM HEPES pH 7.5, 175 mM NaCl, 2.5 mM MgCl2, 0.25% NP40, 10% glycerol, 1 mM DTT) supplemented with 10 μM MG132 (VWR), 1 mM PMSF (Sigma-Aldrich), complete protease inhibitor cocktail (Roche) and PhosSTOP phosphatase inhibitors (Roche) and incubated for 20 min on ice, followed by centrifugation of cell debris for 15 min at 4° C. 16 100 g. In mean time, inhibitor molecules containing Propargyl (Pra) chemical group were covalently attached to the azide agarose or azide magnetic resin (Jena Bioscience) by Cu(I)-catalysed azide-alkyne cycloaddition reaction. Specifically, the inhibitor molecules were mixed with azide agarose resin in ratio 0.125 μmol inhibitor/25 μl agarose resin and azide magnetic resin in ratio 0.018 μmol inhibitor/20 μl magnetic resin. The reaction was catalysed by 1 mM CuSO4, 0.1 mM TBTA (Sigma-Aldrich) and 1 mM Sodium ascorbate and was performed on the rotating wheel for 30 min at room temperature in the volume of 1 ml. Subsequently, the resin was washed 5 times with the extraction buffer. The inhibitor-agarose resin was added to 1 mg of HeLa K cell extract and the inhibitor-magnetic resin was added to 0.5 mg of HeLa K cell extract followed by incubation at 4° C. for 2 h. Followed by washing the resin 5 times with the extraction buffer. Pull-down proteins were eluted by boiling for 15 min with 1×LDS sample buffer supplemented with 100 mM DTT (agarose resin) or by incubation with 1×LDS sample buffer for 10 min at room temperature followed by taking supernatant that was supplemented with 100 mM DTT and boiling it for 10 min. Samples were subjected to SDS PAGE and Western blot analysis.
HeLa K cell pellet was re-suspended in the extraction buffer (30 mM HEPES pH 7.5, 175 mM NaCl, 2.5 mM MgCl2, 0.25% NP40, 10% glycerol, 1 mM DTT supplied with complete protease inhibitor cocktail (Roche), PhosSTOP phosphatase inhibitors (Roche), 1 mM PMSF, 10 μM MG132) and incubated for 20 min on ice, followed by centrifugation to clear the lysate for 15 min at 4° C. 16,100 g. In the meantime, inhibitor molecules containing the propargyl-Gly-OH (Pra) chemical group were covalently attached to the azide agarose resin (Jena Bioscience) by Cu(I)-catalysed azide-alkyne cycloaddition reaction. Specifically, the inhibitor molecules were mixed with azide agarose resin in ratio 0.125 μmol inhibitor/20 μl agarose resin. The reaction was catalysed by 0.1 mM CuSO4, 0.5 mM THPTA (Sigma-Aldrich) and 5 mM Sodium ascorbate and was performed on the rotating wheel for 30 min at room temperature in the volume of 1 ml. […]

[4] = molecular target: T3, Cullin 1 (Homo sapiens, UniProt Q13616); assay: Pull-down binding assay in HeLa K cell extract, Cullin 1; conditions: azide beads, Western blot
T3 construct: endogenous in cells; host or cells: HeLa K cell extract
Method: as §1
(§2) HeLa K cell pellet was re-suspended in the extraction buffer (30 mM HEPES pH 7.5, 175 mM NaCl, 2.5 mM MgCl2, 0.25% NP40, 10% glycerol, 1 mM DTT) supplemented with 10 μM MG132 (VWR), 1 mM PMSF (Sigma-Aldrich), complete protease inhibitor cocktail (Roche) and PhosSTOP phosphatase inhibitors (Roche) and incubated for 20 min on ice, followed by centrifugation of cell debris for 15 min at 4° C. 16 100 g. […]

[5] = molecular target: T4, RBX1 (Homo sapiens, UniProt P62877); assay: Pull-down binding assay in HeLa K cell extract, RBX1; conditions: azide beads, Western blot
T4 construct: endogenous in cells; host or cells: HeLa K cell extract
Method: as §1, §2

T3 sequence (Q13616 whole entry): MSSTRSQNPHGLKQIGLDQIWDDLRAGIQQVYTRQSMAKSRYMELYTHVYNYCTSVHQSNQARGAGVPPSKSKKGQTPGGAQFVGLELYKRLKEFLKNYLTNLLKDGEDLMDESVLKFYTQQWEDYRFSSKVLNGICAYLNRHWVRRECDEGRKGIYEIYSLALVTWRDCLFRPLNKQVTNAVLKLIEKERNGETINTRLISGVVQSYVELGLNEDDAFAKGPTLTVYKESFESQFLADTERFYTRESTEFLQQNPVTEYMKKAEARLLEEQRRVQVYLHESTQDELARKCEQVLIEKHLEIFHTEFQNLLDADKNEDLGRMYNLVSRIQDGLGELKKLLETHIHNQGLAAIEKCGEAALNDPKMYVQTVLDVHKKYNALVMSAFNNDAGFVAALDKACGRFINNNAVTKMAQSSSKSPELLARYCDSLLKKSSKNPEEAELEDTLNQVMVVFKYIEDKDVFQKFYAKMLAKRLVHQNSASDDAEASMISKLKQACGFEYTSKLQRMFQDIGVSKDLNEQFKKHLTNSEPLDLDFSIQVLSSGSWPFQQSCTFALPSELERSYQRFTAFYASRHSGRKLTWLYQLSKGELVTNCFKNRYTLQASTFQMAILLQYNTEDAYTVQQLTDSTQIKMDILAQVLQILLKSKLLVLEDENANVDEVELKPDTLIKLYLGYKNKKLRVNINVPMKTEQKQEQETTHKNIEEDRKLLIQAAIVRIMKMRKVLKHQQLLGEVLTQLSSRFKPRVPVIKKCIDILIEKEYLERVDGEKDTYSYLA
T4 sequence (P62877 whole entry): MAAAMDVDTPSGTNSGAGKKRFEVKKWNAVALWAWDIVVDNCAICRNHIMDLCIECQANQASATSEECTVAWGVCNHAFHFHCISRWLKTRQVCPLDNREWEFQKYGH

Substance	inhibition of APC/C activity in vitro (ubiquitinated securin) [1]	cell fate (cell death) [2]	effect on mitosis (length of mitosis) [2]	binding to the APC/C (pull-down) [3]	binding to Cullin 1 (pull-down) [4]	binding to RBX1 (pull-down) [5]	inhibition of APC/C activity in vitro compared with TAME ([1]; 3 independent assays)
cyclo(1,14)-[L 2-NaI L W K W E W E K R K p P] (cyclo(L[2Nal]LWKWEWEKRK[dP]P); SMILES CC(C)C[C@@H]1NC(=O)[C@H](Cc2ccc3ccccc3c2)NC(=O)[C@H](CC(C)C)NC(=O)[C@@H]2CCCN2C(=O)[C@H]2CCCN2C(=O)[C@H](CCCCN)NC(=O)[C@H](CCCNC(=N)N)NC(=O)[C@H](CCCCN)NC(=O)[C@H](CCC(=O)O)NC(=O)[C@H](Cc2c[nH]c3ccccc23)NC(=O)[C@H](CCC(=O)O)NC(=O)[C@H](Cc2c[nH]c3ccccc23)NC(=O)[C@H](CCCCN)NC(=O)[C@H](Cc2c[nH]c3ccccc23)NC1=O) [G2-6]	the most potent molecule from item (f); also recorded: inhibit APC/C in vitro the most effectively compared to other molecules of item (f)	causes cell death; also recorded: mitotic or subsequent cell death	prolongs mitosis; also recorded: causes prolonged mitosis	–	–	–	–
Ac-cyclo(5,9)-RWPPraXKWDXQVRRW-NH2 (Ac-RWP[Pra][S5]KWD[S5]QVRRW-NH2; staple 5-9; SMILES C#CC[C@H](NC(=O)[C@@H]1CCCN1C(=O)[C@H](Cc1c[nH]c2ccccc12)NC(=O)[C@H](CCCNC(=N)N)NC(C)=O)C(=O)N[C@@]1(C)CCCC=CCCC[C@@](C)(C(=O)N[C@@H](CCC(N)=O)C(=O)N[C@H](C(=O)N[C@@H](CCCNC(=N)N)C(=O)N[C@@H](CCCNC(=N)N)C(=O)N[C@@H](Cc2c[nH]c3ccccc23)C(N)=O)C(C)C)NC(=O)[C@H](CC(=O)O)NC(=O)[C@H](Cc2c[nH]c3ccccc23)NC(=O)[C@H](CCCCN)NC1=O) [G3-1Pra]	–	–	–	binds to the APC/C (APC2 and APC11)	almost does not bind	–	–
Ac-cyclo(4,11)-EWPraZIKEIQRXRRA-NH2 (Ac-EW[Pra][R8]IKEIQR[S5]RRA-NH2; staple 4-11; SMILES C#CC[C@H](NC(=O)[C@H](Cc1c[nH]c2ccccc12)NC(=O)[C@H](CCC(=O)O)NC(C)=O)C(=O)N[C@]1(C)CCCCCCC=CCCC[C@@](C)(C(=O)N[C@@H](CCCNC(=N)N)C(=O)N[C@@H](CCCNC(=N)N)C(=O)N[C@@H](C)C(N)=O)NC(=O)[C@H](CCCNC(=N)N)NC(=O)[C@H](CCC(N)=O)NC(=O)[C@H]([C@@H](C)CC)NC(=O)[C@H](CCC(=O)O)NC(=O)[C@H](CCCCN)NC(=O)[C@H]([C@@H](C)CC)NC1=O) [G3-6Pra]	–	–	–	binds to the APC/C	does not bind	does not bind	–
Ac-cyclo(5,9)-RWPQXKWDXQVRRW-NH2 (Ac-RWPQ[S5]KWD[S5]QVRRW-NH2; staple 5-9; SMILES CC(=O)N[C@@H](CCCNC(=N)N)C(=O)N[C@@H](Cc1c[nH]c2ccccc12)C(=O)N1CCC[C@H]1C(=O)N[C@@H](CCC(N)=O)C(=O)N[C@@]1(C)CCCC=CCCC[C@@](C)(C(=O)N[C@@H](CCC(N)=O)C(=O)N[C@H](C(=O)N[C@@H](CCCNC(=N)N)C(=O)N[C@@H](CCCNC(=N)N)C(=O)N[C@@H](Cc2c[nH]c3ccccc23)C(N)=O)C(C)C)NC(=O)[C@H](CC(=O)O)NC(=O)[C@H](Cc2c[nH]c3ccccc23)NC(=O)[C@H](CCCCN)NC1=O) [G3-1]	–	–	–	binds specifically to the APC/C	–	–	inhibit APC/C in vitro more efficiently than TAME
